# Measured values from PMC4607889, “Modular Design of the Selectivity Filter Pore Loop in a Novel Family of Prokaryotic ‘Inward Rectifier’ (NirBac) channels” (Scientific Reports, 2015).
# Legend:
# [1] = target: NirBac1.2 (Anaeromyxobacter sp. Fw109-5); assay: SEC + native gel or EMSA; purified channel in detergent, non-denaturing conditions; Superdex200; oligomeric state (Supplementary Figure S2B,C)
# NirBac1.1 = target: T1, NirBac1.1 (Anaeromyxobacter dehalogenans, UniProt Q2IH88); assay: […]+ uptake into proteoliposomes; type: biochemical; settings: POPG as part of liposome lipid, 25% vs 50% of total; Na+ driven; activator
# T1 sequence (Q2IH88 1-305): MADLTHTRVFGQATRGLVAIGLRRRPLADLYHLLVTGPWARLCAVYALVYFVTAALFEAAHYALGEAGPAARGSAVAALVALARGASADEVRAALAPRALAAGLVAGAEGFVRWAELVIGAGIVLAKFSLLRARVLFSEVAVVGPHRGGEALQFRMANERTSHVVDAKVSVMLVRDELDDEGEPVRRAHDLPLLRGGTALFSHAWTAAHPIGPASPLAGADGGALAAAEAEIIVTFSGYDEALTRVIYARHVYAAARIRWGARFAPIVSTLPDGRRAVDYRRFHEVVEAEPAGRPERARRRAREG
# NirBac1.2 = target: T2, NirBac1.2 (Anaeromyxobacter sp. Fw109-5, UniProt A7HIG5); assay: […]+ uptake into proteoliposomes; type: biochemical; settings: POPG as part of liposome lipid, 25% vs 50% of total; Na+ driven; activator
# T2 sequence (A7HIG5 1-299): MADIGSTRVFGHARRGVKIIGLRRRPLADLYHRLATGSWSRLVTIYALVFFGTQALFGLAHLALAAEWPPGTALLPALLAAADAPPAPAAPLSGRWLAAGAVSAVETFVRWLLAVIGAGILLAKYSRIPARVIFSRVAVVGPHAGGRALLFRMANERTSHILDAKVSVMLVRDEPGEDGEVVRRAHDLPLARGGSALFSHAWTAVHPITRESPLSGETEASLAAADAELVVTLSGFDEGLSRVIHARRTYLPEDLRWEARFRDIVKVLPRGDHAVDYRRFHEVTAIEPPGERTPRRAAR
# [2] = target: NirBac1.1 (Anaeromyxobacter dehalogenans 2CP-C); assay: SEC + native gel or EMSA; purified channel in detergent, non-denaturing conditions; Superdex200; oligomeric state (Supplementary Figure S2B,C)
molecule,measurement,setting,value
NirBac1.2 (natural protein),stoichiometry N,[1],4
CCCCCCCC/C=C\CCCCCCCC(=O)O[C@H](COC(=O)CCCCCCCCCCCCCCC)COP(=O)(O)OCC(O)CO (stereo partly shown) [POPG],"fold flux increase, 25% to 50% POPG",NirBac1.1,> 5 fold
same,"fold flux increase, 25% to 50% POPG",NirBac1.2,> 5 fold
NirBac1.1 (natural protein),stoichiometry N,[2],4
